Assay results published in patent US20150322445A1.
Blank lines part the entries; values can stand above or below the molecule they belong to.

Columns and labels:
[1] = molecular target: Leavenworthia alabamica Lal2 polypeptide, a1-1 allele (Leavenworthia alabamica); assay: cell-based or functional assay
[2] = molecular target: Leavenworthia alabamica Lal2 polypeptide, a1-2 allele (Leavenworthia alabamica); assay: cell-based or functional assay
Leavenworthia alabamica Lal2 polypeptide, a1-2 allele (Leavenworthia alabamica), sequence (main, as listed by the source): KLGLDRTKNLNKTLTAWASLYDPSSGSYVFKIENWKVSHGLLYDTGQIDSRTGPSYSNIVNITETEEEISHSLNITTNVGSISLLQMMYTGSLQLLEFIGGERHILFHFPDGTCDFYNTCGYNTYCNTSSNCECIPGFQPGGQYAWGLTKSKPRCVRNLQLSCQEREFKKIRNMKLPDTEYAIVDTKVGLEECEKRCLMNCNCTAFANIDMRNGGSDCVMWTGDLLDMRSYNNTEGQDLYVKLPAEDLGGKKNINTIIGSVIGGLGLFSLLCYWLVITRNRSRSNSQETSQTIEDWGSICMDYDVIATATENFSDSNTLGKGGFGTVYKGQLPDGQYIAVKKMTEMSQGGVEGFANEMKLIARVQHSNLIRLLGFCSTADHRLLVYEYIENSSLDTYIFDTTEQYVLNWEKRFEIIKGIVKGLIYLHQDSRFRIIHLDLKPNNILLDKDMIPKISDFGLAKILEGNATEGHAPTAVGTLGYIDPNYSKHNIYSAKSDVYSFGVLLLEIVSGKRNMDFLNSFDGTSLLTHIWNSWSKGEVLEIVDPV

Leavenworthia alabamica Lal2 polypeptide, a1-1 allele (Leavenworthia alabamica), sequence (chain, as listed by the source limits assumed, form in doubt): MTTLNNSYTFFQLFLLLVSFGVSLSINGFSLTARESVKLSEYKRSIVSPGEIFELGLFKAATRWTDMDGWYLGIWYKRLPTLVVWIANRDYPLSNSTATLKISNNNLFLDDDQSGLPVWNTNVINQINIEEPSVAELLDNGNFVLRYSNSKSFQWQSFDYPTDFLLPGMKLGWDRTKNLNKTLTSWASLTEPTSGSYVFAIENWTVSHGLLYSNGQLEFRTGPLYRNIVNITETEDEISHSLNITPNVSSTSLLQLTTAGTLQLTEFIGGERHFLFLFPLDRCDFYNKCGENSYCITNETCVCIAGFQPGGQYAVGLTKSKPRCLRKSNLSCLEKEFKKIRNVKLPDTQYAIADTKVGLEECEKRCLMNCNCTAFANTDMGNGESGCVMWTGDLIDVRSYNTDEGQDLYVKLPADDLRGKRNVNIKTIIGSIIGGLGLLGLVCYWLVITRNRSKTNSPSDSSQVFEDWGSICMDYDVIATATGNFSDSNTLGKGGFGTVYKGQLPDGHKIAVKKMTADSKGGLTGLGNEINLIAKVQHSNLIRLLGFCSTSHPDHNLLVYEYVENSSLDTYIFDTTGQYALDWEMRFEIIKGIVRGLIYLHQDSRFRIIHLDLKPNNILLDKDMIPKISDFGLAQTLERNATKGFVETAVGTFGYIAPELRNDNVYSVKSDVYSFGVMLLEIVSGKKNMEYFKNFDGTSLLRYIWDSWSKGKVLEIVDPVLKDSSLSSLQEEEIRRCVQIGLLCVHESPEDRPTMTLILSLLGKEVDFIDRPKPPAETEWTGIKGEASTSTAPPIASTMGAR

Pollen rejection reactions observed (fewer than ten pollen tubes in the pistil); female line 1-15 (Lal2 transformant) x male line 3-13 (SCRL transformant), 5 crosses [1]: 3 of 5 crosses
Molecule: Leavenworthia alabamica SCRL polypeptide, a1-1 allele

Pollen rejection reactions observed (fewer than ten pollen tubes in the pistil); female line 1-15 (Lal2 transformant) x male line 4-21 (SCRL transformant), 5 crosses [1]: 3 of 5 crosses | Pollen rejection reactions observed (fewer than ten pollen tubes in the pistil); female line 1-25 (Lal2 transformant) x male line 3-13 (SCRL transformant), 5 crosses [1]: 4 of 5 crosses | Pollen rejection reactions observed (fewer than ten pollen tubes in the pistil); female line 1-25 (Lal2 transformant) x male line 4-21 (SCRL transformant), 5 crosses [1]: 1 of 5 crosses
Molecule: Leavenworthia alabamica SCRL polypeptide, a1-1 allele (ligand)

Crosses that produced fruit or had germinated pollen tubes; a1-2 recipient plant x a2 pollen donors (% of 9 crosses) [2]: 89
Molecule: MAKSVRLISFIIYLTINMLIFAVNPKPHSSQVPPIPDPGKHRRCF (ligand) [Leavenworthia alabamica SCRL, a2 allele (truncated protein)]
